From IntAct's records for PubMed 31515488

B1: Protein FAM9B (Homo sapiens), Q8IZU0 (parent)
chain: MAAWGKKHAGKDPVRDECEERNRFTETREEDVTDEHGEREPFAETDEHTGANTKKPEDTAEDLTAKRKRMKMDKTCSKTKNKSKHALRKKQLKRQKRDYIHSLKLLNVLEEYITDEQKEEEEEEGEEEELIRIFQEQQKKWQQYRSVRRERLKEMKLLRDQFVKALEDFEDLCDRVFSDEDSELDN
partner: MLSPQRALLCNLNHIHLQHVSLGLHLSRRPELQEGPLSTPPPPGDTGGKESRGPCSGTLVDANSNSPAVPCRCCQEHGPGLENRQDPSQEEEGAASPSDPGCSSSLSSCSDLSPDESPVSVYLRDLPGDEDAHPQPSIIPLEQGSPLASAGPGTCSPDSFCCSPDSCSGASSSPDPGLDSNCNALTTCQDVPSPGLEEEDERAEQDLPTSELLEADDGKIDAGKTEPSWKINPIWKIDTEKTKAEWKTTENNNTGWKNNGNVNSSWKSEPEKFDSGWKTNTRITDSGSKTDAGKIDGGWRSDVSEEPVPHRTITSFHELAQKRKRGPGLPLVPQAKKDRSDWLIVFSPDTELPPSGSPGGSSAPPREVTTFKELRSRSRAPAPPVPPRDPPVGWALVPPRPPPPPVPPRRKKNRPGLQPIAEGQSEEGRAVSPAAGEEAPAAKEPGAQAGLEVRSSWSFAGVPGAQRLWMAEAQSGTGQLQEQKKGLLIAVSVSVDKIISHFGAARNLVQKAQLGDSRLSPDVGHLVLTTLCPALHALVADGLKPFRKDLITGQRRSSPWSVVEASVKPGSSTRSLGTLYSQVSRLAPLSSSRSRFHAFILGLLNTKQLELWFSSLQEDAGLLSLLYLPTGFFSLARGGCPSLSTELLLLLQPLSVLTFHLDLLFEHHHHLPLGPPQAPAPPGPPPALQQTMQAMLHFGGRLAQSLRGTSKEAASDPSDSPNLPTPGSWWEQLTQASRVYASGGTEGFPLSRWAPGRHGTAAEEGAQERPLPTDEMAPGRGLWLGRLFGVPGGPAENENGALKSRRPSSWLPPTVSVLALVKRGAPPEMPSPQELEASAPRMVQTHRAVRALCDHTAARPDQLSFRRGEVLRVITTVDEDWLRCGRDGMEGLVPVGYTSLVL
B2: Synaptotagmin-like protein 4 (Homo sapiens), Q96C24 (parent)
chain: MSELLDLSFLSEEEKDLILSVLQRDEEVRKADEKRIRRLKNELLEIKRKGAKRGSQHYSDRTCARCQESLGRLSPKTNTCRGCNHLVCRDCRIQESNGTWRCKVCAKEIELKKATGDWFYDQKVNRFAYRTGSEIIRMSLRHKPAVSKRETVGQSLLHQTQMGDIWPGRKIIQERQKEPSVLFEVPKLKSGKSALEAESESLDSFTADSDSTSRRDSLDKSGLFPEWKKMSAPKSQVEKETQPGGQNVVFVDEGEMIFKKNTRKILRPSEYTKSVIDLRPEDVVHESGSLGDRSKSVPGLNVDMEEEEEEEDIDHLVKLHRQKLARSSMQSGSSMSTIGSMMSIYSEAGDFGNIFVTGRIAFSLKYEQQTQSLVVHVKECHQLAYADEAKKRSNPYVKTYLLPDKSRQGKRKTSIKRDTINPLYDETLRYEIPESLLAQRTLQFSVWHHGRFGRNTFLGEAEIQMDSWKLDKKLDHCLPLHGKISAESPTGLPSHKGELVVSLKYIPASKTPVGGDRKKSKGGEGGELQVWIKEAKNLTAAKAGGTSDSFVKGYLLPMRNKASKRKTPVMKKTLNPHYNHTFVYNGVRLEDLQHMCLELTVWDREPLASNDFLGGVRLGVGTGISNGEVVDWMDSTGEEVSLWQKMRQYPGSWAEGTLQLRSSMAKQKLGL
B3: Rho guanine nucleotide exchange factor 3 (Homo sapiens), Q9NR81 (parent)
chain: MVAKDYPFYLTVKRANCSLELPPASGPAKDAEEPSNKRVKPLSRVTSLANLIPPVKATPLKRFSQTLQRSISFRSESRPDILAPRPWSRNAAPSSTKRRDSKLWSETFDVCVNQMLTSKEIKRQEAIFELSQGEEDLIEDLKLAKKAYHDPMLKLSIMTEQELNQIFGTLDSLIPLHEELLSQLRDVRKPDGSTEHVGPILVGWLPCLSSYDSYCSNQVAAKALLDHKKQDHRVQDFLQRCLESPFSRKLDLWNFLDIPRSRLVKYPLLLREILRHTPNDNPDQQHLEEAINIIQGIVAEINTKTGESECRYYKERLLYLEEGQKDSLIDSSRVLCCHGELKNNRGVKLHVFLFQEVLVITRAVTHNEQLCYQLYRQPIPVKDLLLEDLQDGEVRLGGSLRGAFSNNERIKNFFRVSFKNGSQSQTHSLQANDTFNKQQWLNCIRQAKETVLCAAGQAGVLDSEGSFLNPTTGSRELQGETKLEQMDQSDSESDCSMDTSEVSLDCERMEQTDSSCGNSRHGESNV
B4: Cyclin-dependent kinase 4 (Homo sapiens), P11802 (parent)
chain: MATSRYEPVAEIGVGAYGTVYKARDPHSGHFVALKSVRVPNGGGGGGGLPISTVREVALLRRLEAFEHPNVVRLMDVCATSRTDREIKVTLVFEHVDQDLRTYLDKAPPPGLPAETIKDLMRQFLRGLDFLHANCIVHRDLKPENILVTSGGTVKLADFGLARIYSYQMALTPVVVTLWYRAPEVLLQSTYATPVDMWSVGCIFAEMFRRKPLFCGNSEADQLGKIFDLIGLPPEDDWPRDVSLPRGAFPPRGPRPVQSVVPEMEESGAQLLLEMLTFNPHKRISAFRALQHSYLHKDEGNPE

Variants of: B1
Details: with rusc1_human RUSC1, Q9BVN2

| Variant | effect of a mutation on the interaction |
| --- | --- |
| R23H | with no effect |

Variants of: B2
Details: with hm20a_human HMG20A

| Variant | effect of a mutation on the interaction |
| --- | --- |
| D252G | with no effect |
| M646I | with no effect |

Variants of: B2
Details: with cep70_human CEP70, Q8NHQ1
cep70_human CEP70, Q8NHQ1, sequence (Q8NHQ1 whole entry): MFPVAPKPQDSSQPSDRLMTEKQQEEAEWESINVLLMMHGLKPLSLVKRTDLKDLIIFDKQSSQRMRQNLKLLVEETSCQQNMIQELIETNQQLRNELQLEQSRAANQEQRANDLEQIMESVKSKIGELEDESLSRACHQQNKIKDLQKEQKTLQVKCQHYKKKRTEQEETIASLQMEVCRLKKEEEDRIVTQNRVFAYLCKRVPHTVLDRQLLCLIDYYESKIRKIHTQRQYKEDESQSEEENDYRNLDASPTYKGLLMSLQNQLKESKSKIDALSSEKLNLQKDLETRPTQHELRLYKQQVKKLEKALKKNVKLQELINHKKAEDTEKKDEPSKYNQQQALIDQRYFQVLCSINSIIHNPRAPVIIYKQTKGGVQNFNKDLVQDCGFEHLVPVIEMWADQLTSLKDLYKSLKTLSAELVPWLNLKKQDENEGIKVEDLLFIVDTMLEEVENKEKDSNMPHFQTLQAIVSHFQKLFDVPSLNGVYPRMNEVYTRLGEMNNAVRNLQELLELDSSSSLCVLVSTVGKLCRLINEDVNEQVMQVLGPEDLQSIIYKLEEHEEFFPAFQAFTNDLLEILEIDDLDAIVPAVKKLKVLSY

| Variant | effect of a mutation on the interaction |
| --- | --- |
| D252G | with no effect |
| M646I | disrupting interaction strength |

Variants of: B3
Details: with tri23_human TRIM23, P36406
tri23_human TRIM23, P36406, sequence (P36406 whole entry): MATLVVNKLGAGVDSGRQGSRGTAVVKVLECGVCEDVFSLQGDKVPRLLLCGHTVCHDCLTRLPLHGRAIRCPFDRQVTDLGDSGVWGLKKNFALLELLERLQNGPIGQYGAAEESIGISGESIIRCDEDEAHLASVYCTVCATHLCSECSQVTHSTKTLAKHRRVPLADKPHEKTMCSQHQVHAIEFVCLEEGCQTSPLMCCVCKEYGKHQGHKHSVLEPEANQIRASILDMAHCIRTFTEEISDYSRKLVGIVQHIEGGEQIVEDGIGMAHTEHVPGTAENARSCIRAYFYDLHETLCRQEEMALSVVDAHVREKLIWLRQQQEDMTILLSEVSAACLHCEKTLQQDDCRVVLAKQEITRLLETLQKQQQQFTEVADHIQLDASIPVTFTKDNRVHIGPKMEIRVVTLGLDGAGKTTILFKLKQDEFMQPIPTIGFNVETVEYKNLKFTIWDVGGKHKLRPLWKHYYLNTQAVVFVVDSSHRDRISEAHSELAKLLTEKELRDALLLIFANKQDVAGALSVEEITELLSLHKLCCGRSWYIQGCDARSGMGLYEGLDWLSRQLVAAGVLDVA

| Variant | effect of a mutation on the interaction |
| --- | --- |
| MVAKDYPFYLTVKRANCSLELPPASGPAKDAEEPSNKRVKPLSRVTSLANLIPPVKATPLKRFSQTLQRSISFRSESRPDILAPRPWSRNAAPSSTKRRDSKLWSETFDVCVNQMLTSKEIKRQEAIFELSQGEEDLIEDLKLAKKAYHDPMLKLSIMTEQELNQIFGTLDSLIPLHEELLSQLRDVRKPDGSTEHVGPILVGWLPCLSSYDSYCSNQVAAKALLDHKKQDHRVQDFLQRCLESPFSRKLDLWNFLDIPRSRLVKYPLLLREILRHTPNDNPDQQHLEEAINIIQGIVAEINTKTGESECRYYKERLLYLEEGQKDSLIDSSRVLCCHGELKNNRGVKLHVFLFQEVLVITRAVTHNEQLCYQLYRQPIPVKDLLLEDLQDGEVRLGGSLRGAFSNNERIKNFFRVSFKNGSQSQTHSLQASDTFNKQQWLNCIRQAKETVLCAAGQAGVLDSEGSFLNPTTGSRELQGETKLEQMDQSDSESDCSMDTSEVSLDCERMEQTDSSCGNSRHGESNV [N432S] | with no effect |

Variants of: B4
Details: with ccnd1_human CCND1, P24385
ccnd1_human CCND1, P24385, sequence (P24385 whole entry): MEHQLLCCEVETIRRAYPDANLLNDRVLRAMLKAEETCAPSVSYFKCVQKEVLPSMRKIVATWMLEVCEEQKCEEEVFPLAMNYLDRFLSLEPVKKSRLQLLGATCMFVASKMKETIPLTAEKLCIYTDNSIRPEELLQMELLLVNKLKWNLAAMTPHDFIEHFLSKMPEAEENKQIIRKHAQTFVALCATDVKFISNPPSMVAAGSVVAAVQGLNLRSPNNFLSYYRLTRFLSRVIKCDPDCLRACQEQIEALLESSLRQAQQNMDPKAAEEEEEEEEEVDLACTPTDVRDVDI

| Variant | effect of a mutation on the interaction |
| --- | --- |
| MATSRYEPVAEIGVGAYGTVYKARDPHSGHFVALKSVRVPSGGGGGGGLPISTVREVALLRRLEAFEHPNVVRLMDVCATSRTDREIKVTLVFEHVDQDLRTYLDKAPPPGLPAETIKDLMRQFLRGLDFLHANCIVHRDLKPENILVTSGGTVKLADFGLARIYSYQMALTPVVVTLWYRAPEVLLQSTYATPVDMWSVGCIFAEMFRRKPLFCGNSEADQLGKIFDLIGLPPEDDWPRDVSLPRGAFPPRGPRPVQSVVPEMEESGAQLLLEMLTFNPHKRISAFRALQHSYLHKDEGNPE [N41S] | with no effect |
